Results on 20 molecules are retold here after patent US20140037642A1 (Amgen, published 2014).

Experiment [1] addresses T1, hu INSR(ECD)-muIgG1Fc (human; mouse, Glycosylated. 87% of the preparation was cleaved between the alpha and beta chains (RKRR site), which stay disulfide-linked. Dimer through the receptor and the murine Fc.).
T1 construct: 87% processed into α and β chains; also called INSR(ECD)-muFc; INSR-mFc
The experiment in a line: phage Fab ELISA, plate coated with INSR-mFc at 5 µg/ml. The protocol:
(§1) In 96-well 2-ml deep-well blocks, 480 μl/well 2xYT-CG broth was inoculated with 20 μl of overnight cultures of the individual clones, then incubated at 37° C., 300 rpm for 3 hours. To each well, 50 μl of 1:3 diluted M13KO7 helper phage were added to infect the cells. The block was incubated at 37° C. without shaking for 30 minutes, and then shaken gently for another 30 minutes at 150 rpm. The block was centrifuged at 3600 rpm for 20 minutes to pellet the infected cells. The cell pellet in each well was suspended into 480 μl of 2xYT-CK (2xYT broth containing 100 μg/ml carbenicillin and 40 μg/ml kanamycin), and incubated at 30° C. overnight for about 20 hours. The cell debris was separated by centrifugation at 3600 rpm for 20 minutes. The rescued phage supernatant was used in the phage ELISA to check for IGF-1R-specific, INSR-cross reactive, or mouse Fc binding of individual clones.
(§2) The coated plates were washed 3× with 300 μl/well of PBS. The washed plates were blocked with 300 μl/well 2% MPBS at room temperature for one hour. Meanwhile, rescued phages of individual clones were pre-blocked by mixing 170 μl of rescued phage with 170 μl of 4% MPBS. The blocked plates were washed 5× with 300 μl/well TBST (TBS: 10 mM Tris-HCl, pH 7.5, 1 mM EDTA, 150 mM NaCl; Tween-20. 0.1%). 100 μl/well of pre-blocked phage dilutions were distributed to each set of coated plate, which were incubated at room temperature on a rocker for 90 minutes. The plates were washed 5× with 300 μl/well TBST. 100 μl/well of anti-M13-HRP in 2% MPBS (1:3000 dilution, catalog number 27-9421-01, Amersham Pharmacia Biotech) were distributed, and plates were incubated at room temperature on rocker for one hour. The plates were washed 5× with 300 μl/well TBST. 100 μl/well of the substrate 1-Step™ ABTS (Pierce Biotechnology, Rockford, Ill., catalog number 37615) were added. Plates were incubated for one hour. OD₄₀₅ was measured for signal detection.
(An ELISA detects its analyte on a solid surface through an enzyme-linked reagent.)

For experiment [2], the target named is T2, hu IGF-1R(ECD)-C3-muIgG1Fc (human; mouse, Glycosylated. 60% of the preparation was cleaved between the alpha and beta chains (RKRR, mature positions 708-711), which stay disulfide-linked; 40% was unprocessed. Dimer through the …).
T2 construct: 60% of the product was processed into α and β chains, 40% unprocessed; also called IGF-1R(ECD)-C3-muFc; IGF-1R-C3-muFc
The experiment in a line: phage Fab ELISA, plate coated with IGF-1R-C3-mFc at 5 µg/ml. As for the experimental part:
as §1, §2

B1: L14H14 phage-displayed Fab (Fab, V domains shown)
VH: QVQLQESGPGLVKPSGTLSLTCAVSGGSISSSNWWSWVRQPPGKGLEWIGEIYHSGSTNYNPSLKSRVTISVDKSKNQFSLKLSSVTAADTAVYYCARGLGDSSGYILWGQGTMVTVSS
VL: not shown
For the molecule B1, the binding result in experiment [1] was “no binding”; in experiment [2] it was “binds”.

B2: L33H33 phage-displayed Fab (Fab, V domains shown)
VH: QVQLQESGPGLVKPSGTLSLTCAVSGGSISSSNWWSWVRQPPGKGLEWIGEIYHSGSTNYNPSLKSRVTISVDKSKNQFSLKLSSVTAADTAVYYCARGLGDSSGYILWGQGTMVTVSS
VL: EIVLTQSPLSLPVTPGEPASISCRSSQSLLHSNGYNYLDWYLQKPGQSPQLLMYLVSNRASGVPERFSGSGSGTDFTLKISRVEAEDVGVYYCMQTLQTPLSFGQGTKLEIK
B2: the binding result in experiment [1] was “no binding”; in experiment [2], “binds”.

B3: L15H15 phage-displayed Fab (Fab, V domains shown)
VH: QVQLQESGPGLVKPSGTLSLTCAVSGGSISSSNWWSWVRQPPGKGLEWIGEIYHSGSTNYNPSLKSRVTISVDKSKNQFSLKLSSVTAADTAVYYCARGLGDSSGYILWGQGTMVTVSS
VL: DVVMTQSPLSLPVTPGEPASISCRSSQSLLHSNGYNYLDWYLQKPGQSPQLLIYLGSYRASGVPDRFSASGSGTDFTLKISRVEAEDVGVYYCMQALQTPITFGQGTRLEIK
In the case of B3, the binding result is listed as “no binding” in experiment [1] and “binds” in experiment [2].

B4: L38H38 phage-displayed Fab (Fab, V domains shown)
VH: EVQLVESGPGLVKPSETLSLTCAVSGGSISSSNWWSWVRQPPGKGLEWIGEIYHSGSTNYNPSLKSRVTISVDKSKNQFSLKLSSVTAADTAVYYCARSTWSLDYWGQGTLVTVSS
VL: not shown
For B4, the binding result in experiment [1] is given as “no binding”; in experiment [2] it was “binds”.

B5: L30H30 phage-displayed Fab (Fab, V domains shown)
VH: QVQLQESGPGLVKPSGTLSLTCAVSGGSISSSNWWSWVRQPPGKGLEWIGEIYHSGSTNYNPSLKSRVTISVDKSKNQFSLKLSSVTAADTAVYYCARVSGYYYYGMDVWGQGTTVTVSS
VL: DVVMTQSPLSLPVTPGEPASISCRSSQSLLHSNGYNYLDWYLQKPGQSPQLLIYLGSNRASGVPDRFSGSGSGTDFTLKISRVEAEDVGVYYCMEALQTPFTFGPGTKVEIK
For the molecule B5, the binding result in experiment [1] is on record as “no binding”; in experiment [2], “binds”.

B6: L37H37 phage-displayed Fab (Fab, V domains shown)
VH: EVQLVESGPGLVKPSGTLSLTCAVSGGSISSSNWWSWIRQPPGKGLEWIGEIYHSGSTNYNPSLKSRVTISVDKSKNQFSLKLSSVTAADTAVYYCARDSSSWYYGMDVWGQGTTVTVSS
VL: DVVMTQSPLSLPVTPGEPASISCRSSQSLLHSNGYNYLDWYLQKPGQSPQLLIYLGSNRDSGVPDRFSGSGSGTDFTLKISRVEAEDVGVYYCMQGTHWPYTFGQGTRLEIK
Turning to B6, the values for the binding result in experiment [1] and in experiment [2] were “no binding” and “binds”, respectively.

B7: L34H34 phage-displayed Fab (Fab, V domains shown)
VH: QVQLQQSGPGLVKPSGTLSLTCAVSGGSISSSNWWSWVRQPPGKGLEWIGEIYHSGSTNYNPSLKSRVTISVDKSKNQFSLKLSSVTPEDTAVYYCARDHGPFDYWGRGTLVTVSS
VL: not shown
As to B7, the figures for the binding result in experiment [1] and in experiment [2] were “no binding” and “binds”, respectively.

B8: L29H29 phage-displayed Fab (Fab, V domains shown)
VH: QVQLQESGPGLVKPSETLSLTCAVSGGSISSSNWWSWVRQPPGKGLEWIGEIYHSGSTNYNPSLKSRVTISVDKSKNQFSLKLSSVTAADTAVYYCARVGSGWYVDYWGQGTLVTVSS
VL: not shown
On to B8, for which the binding result in experiment [1] was “no binding”; in experiment [2], “binds”.

B9: L7H7 phage-displayed Fab (Fab, V domains shown)
VH: QVQLQESGPGLVKPSGTLSLTCAVSGGSISSSNWWSWVRQPPGKGLEWIGEIYHSGSTNYNPSLKSRVTISVDKSKNQFSLKLSSVTAADTAVYYCARFWDYYGMDVWGQGTTVTVSS
VL: not shown
As to B9, the binding result in experiment [1] is “no binding”; in experiment [2] it was “binds”.

B10: L3H3 phage-displayed Fab (Fab, V domains shown)
VH: QVQLQESGPGLVKPSGTLSLTCAVSGGSISSSNWWSWVRQPPGKGLEWIGEIYHSGSTNYNPSLKSRVTISVDKSKNQFSLKLSSVTAADTAVYYCAKNLAAGAVAYWGQGTLVTVSS
VL: not shown
In the case of B10, the binding result in experiment [1] was “no binding”; in experiment [2], “binds”.

B11: L39H39 phage-displayed Fab (Fab, V domains shown)
VH: EVQLVESGPGLVKPSGTLSLTCAVSGGSISSSNWWSWVRQPPGKGLEWIGEIYHSGSTNYNPSLKSRVTISVDKSKNQFSLKLSSVTAADTAVYYCARLSFADPFDIWGQGTMVTVSS
VL: not shown
Turning to B11, the values for the binding result in experiment [1] and in experiment [2] were “no binding” and “binds”, respectively.

B12: L10H10 phage-displayed Fab (Fab, V domains shown)
VH: EVQLVESGPGLVKPSGTLSLTCAVSGGSISSSNWWSWVRQPPGKGLEWIGEIYHSGSTNYNPSLKSRVTISVDKSKNQFSLKLSSVTAADTAVYYCARDYDIFGMDVWGQGTTVTVSS
VL: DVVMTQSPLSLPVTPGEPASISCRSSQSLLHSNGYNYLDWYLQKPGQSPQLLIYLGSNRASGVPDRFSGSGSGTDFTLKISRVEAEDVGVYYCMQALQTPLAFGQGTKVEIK
Regarding B12, the binding result in experiment [1] is given as “no binding”; in experiment [2], “binds”.

B13: L6H6 phage-displayed Fab (Fab, V domains shown)
VH: QVQLQESGPGLVKPSGTLSLTCAVSGGSISSSNWWSWVRQPPGKGLEWIGEIYHSGSTNYNPSLKSRVTISVDKSKNQFSLKLSSVTAADTAVYYCARDGQLDAFDIWGQGTMVTVSS
VL: not shown
On to B13, for which the binding result in experiment [1] is on record as “no binding”; in experiment [2], “binds”.

B14: L25H25 phage-displayed Fab (Fab, V domains shown)
VH: QVQLQESGPGLVKPSGTLSLTCAVSGGSISSSNWWSWVRQPPGKGLEWIGEIYHSGSTNYNPSLKSRVTISVDKSKNQFSLKLSSVTAADTAVYYCASSGYDAFDIWGQGTTVTVSS
VL: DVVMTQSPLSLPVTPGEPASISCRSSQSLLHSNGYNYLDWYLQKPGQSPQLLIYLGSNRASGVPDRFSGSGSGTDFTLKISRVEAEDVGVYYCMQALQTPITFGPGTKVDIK
As for B14, the binding result is listed as “no binding” in experiment [1] and “binds” in experiment [2].

B15: L32H32 phage-displayed Fab (Fab, V domains shown)
VH: QVQLQESGPGLVKPSGTLSLTCAVSGGSISSSNWWSWVRQPPGKGLEWIGEIYHSGSTNYNPSLKSRVTISVDKSKNQFSLKLSSVTAADTAVYYCARASVDAFDIWGQGTMVTVSS
VL: not shown
As to B15, the values for the binding result in experiment [1] and in experiment [2] were “no binding” and “binds”, respectively.

B16: L31H31 phage-displayed Fab (Fab, V domains shown)
VH: EVQLVQSGGGVVQPGRSLRLSCAASGFTFSSYGMHWVRQAPGKGLEWVAVISYDGSNKYYADSVKGRFTISRDNSKNTLYLQMNSLRAEDTAVYYCAKAYSSGWYDYYGMDVWGQGTTVTVSS
VL: DIQLTQSPSSLSASVGDRVTITCRSSQGIGYFLNWYQQEPGKAPKILISAASTLQSGVPSRFSGSGSGTDFTLSINNLQPADFATYYCQQSHSPPYTFGQGTKVEIK
With B16, the binding result was “no binding” in experiment [1] and “binds” in experiment [2].

B17: L36H36 phage-displayed Fab (Fab, V domains shown)
VH: QVQLQQWGAGLLKPSETLSLTCAVYGGSFSGYYWSWIRQPPGKGLEWIGEINHSGSTNYNPSLKSRVTISVDTSKNQFSLKLSSVTAADTAVYYCARVGYSSGRDVDYWGQGTLVTVSS
VL: NFMLTQPHSVSESPGKTVTISCTRSSGSIASNYVQWYQQRPGSSPTTVIYEDNQRPSGVPDRFSGSIDSSSNSASLTISGLKTEDEADYYCQSYDSSNVVFGGGTKLTVL
With B17, the binding result is recorded as “no binding” in experiment [1] and “binds” in experiment [2].

B18: L40H40 phage-displayed Fab (Fab, V domains shown)
VH: QVQLVQSGAEVKKPGSSVKVSCKASGGTFSSYAISWVRQAPGQGLEWMGRIIPILGIANYAQKFQGRVTITADKSTSTAYMELSSLRSEDTAVYYCAYGSGSYYDYYYMDVWGKGTTVTVSS
VL: ETTLTQSPATLSLSPGQRATLSCRASQSVYNYLAWYQQKPGQAPRLLIYDASRRATGIPARFSGSGSGTDFTLTISSLEPEDFAVYYCQQRNNWPLTFGGGTKVEIK
In the case of B18, the binding result in experiment [1] is given as “no binding”; in experiment [2] it was “binds”.

B19: L27H27 phage-displayed Fab (Fab, V domains shown)
VH: EVQLVQSGGGVVQPGTSLRLSCAASGFSFRSHGMHWVRQAPGKGLEWVAVISYDGSNKYYADSVKGRFTISRDNSKNTLYLQMNSLRAEDTAVYYCATIGPGGFDYWGQGTLVTVSS
VL: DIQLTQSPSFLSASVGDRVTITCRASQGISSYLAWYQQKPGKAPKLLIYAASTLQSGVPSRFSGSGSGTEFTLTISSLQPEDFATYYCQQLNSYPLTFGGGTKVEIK
As to B19, the binding result in experiment [1] is given as “no binding”; in experiment [2], “binds”.

B20: L28H28 phage-displayed Fab (Fab, V domains shown)
VH: QVQLQESGPGLVKPSETLSLTCTVSGGSIRNYYWSWIRQPPGKGLEWIGYISDSGNTNYNPSLKSRVTISVDTSKNQFSLKLTSVTATDTAAYFCARHRSSWAWYFDLWGRGTLVTVSS
VL: SYVLTQPPSVSVSPGQTASITCSGDKLGDKYVGWYQQKAGQAPVLVIYQDNKRPSGIPERFSGSNSGNTASLTISGTQAMDEADYYCQAWDSGTVFGGGTKLTVL
In the case of B20, the binding result in experiment [1] is “no binding”; in experiment [2] it was “binds”.
